For assay [1], the system named is CHO cells. Description: Confocal immunofluorescence colocalization of AGT with mitochondria (Mitotracker) in transfected CHO cells. It counts as cell-based, Chinese hamster. The conditions noted are these: transiently transfected CHO cells; for Pearson Rr, AGT + Mitotracker: fixed 72 h after transfection, mean ± S.E. As for the experimental part: (§1) Chinese hamster ovary (CHO) cells (ATTC, Rockville, MD USA) were grown in alpha-minimal essential medium (α-MEM, Lonza, Köln, Germany) supplemented with glutamine, penicillin/streptomycin and 5% fetal bovine serum. Cell transfections were performed using AGT cDNA variants (AGT-LRM or AGT-LRM-SKL) subcloned in pCIneo plasmids (Promega) with Transfast reagent (Promega, Madison, WI, USA), following manufacturer’s guidelines. After 24 h, cells were passed to plates containing 13 mm glass coverslips for immunofluorescence studies. Mitochondria in half the coverslips were labeled by incubation with Mitotracker (CMXRos, Invitrogen, Carlsbad, CA, USA) at the end of the culture. Cells were fixed with 2% paraformaldehyde 72 h after transfection and immunofluorescence was performed as previously described. Images were acquired with a laser scanning confocal microscope (Olympus Inverted IX81, Tokyo, Japan) using a 60× objective with immersion oil.
(§2) For quantitative immune-colocalization, the system was optimized to detect two fluorescent signals in one specimen: one in the green channel detector for protein of interest AGT-LRM or AGT-LRM-SKL and the other in the red channel, for either mitochondria labeled with mitotracker or peroxisomes labeled with peroxisomal membrane protein 70 (PMP70) antibody. When the two were seen to overlap (colocalization), it was assumed to be due to fluorescently labeled molecules binding to very close or indeed identical spatial positions. Colocalization events (or the lack thereof) were analyzed quantitatively with FluoView software (Olympus, Tokyo, Japan) and ImageJ software (NIH, Bethesda, MD, USA) with the JACoP plugin, based on a global statistic approach that conducts an intensity correlation coefficient-based examination. The Fisher transformation was applied to data obtained from ImageJ as well when calculating the mean values of colocalization coefficients and constructing the respective 95% confidence intervals. Descriptive statistical analysis of colocalization parameters (Pearson’s coefficient, Manders’ overlap coefficient and split Manders’ coefficients) was performed.

Assay [2] deals with CHO cells. The experiment in a line: Confocal immunofluorescence colocalization of AGT with peroxisomes (PMP70) in transfected CHO cells. The assay is classed as cell-based, Chinese hamster. As to conditions: for amount of protein localized in peroxisomes / Pearson Rr, AGT + PMP70: transiently transfected CHO cells; for Pearson Rr, AGT + PMP70: fixed 72 h after transfection. As for the experimental part: as §1, §2

Substitutions are numbered along the chain they refer to. In names and notes the source's numbering stands.

Two molecules from paper PMC4384115, “Molecular Recognition of PTS-1 Cargo Proteins by Pex5p: Implications for Protein Mistargeting in Primary Hyperoxaluria” (Biomolecules, 2015) can be followed below.

B1: AGT-LRM: human AGT variant p.P11L/p.G170R/p.I340M, mistargeting PH1 variant (protein, UniProt P21549 1-392, looked up, variant P11L G170R I340M)
Alanine--glyoxylate …: MASHKLLVTPLKALLKPLSIPNQLLLGPGPSNLPPRIMAAGGLQMIGSMSKDMYQIMDEIKEGIQYVFQTRNPLTLVISGSGHCALEAALVNVLEPGDSFLVGANGIWGQRAVDIGERIGARVHPMTKDPGGHYTLQEVEEGLAQHKPVLLFLTHGESSTGVLQPLDGFRELCHRYKCLLLVDSVASLGGTPLYMDRQGIDILYSGSQKALNAPPGTSLISFSDKAKKKMYSRKTKPFSFYLDIKWLANFWGCDDQPRMYHHTIPVISLYSLRESLALIAEQGLENSWRQHREAAAYLHGRLQALGLQLFVKDPALRLPTVTTVAVPAGYDWRDIVSYVMDHFDIEIMGGLGPSTGKVLRIGLLGCNATRENVDRVTEALRAALQHCPKKKL
B1: in the assay on CHO cells [1], the “colocalization with mitotracker in the mitochondria” value came out at 92%. In addition, the “Pearson Rr, AGT + Mitotracker” value in the assay on CHO cells [1] was 0.90; with CHO cells [1] (SEM), 0.90 ± 0.12. Moreover, the “% Coloc (Manders' m), AGT + PMP70” value in the assay on CHO cells [2] (CHO cells, mean ± S.E., given as fraction, split Manders' M1 in situation 2, Manders' overlap R in situation 4, SEM) is reported as 0.17 ± 0.15. Also, the “amount of protein localized in peroxisomes” value in the assay on CHO cells [2] is recorded as 17%. Further, the “Pearson Rr, AGT + PMP70” value in the assay with CHO cells [2] (mean ± S.E.) is 0.39; in the assay on CHO cells [2] (mean ± S.E., SEM), 0.39 ± 0.15.

B2: AGT-LRM-SKL: AGT-LRM with PTS1 mutated to the consensus –SKL C-terminal tripeptide (protein, UniProt P21549 1-392, looked up, variant P11L G170R I340M K390S L392L)
Alanine--glyoxylate …: B1 Alanine--glyoxylate … with K390S
Regarding B2, in the assay with CHO cells [1], the “colocalization with mitotracker in the mitochondria” value is on record as 40% and the “Pearson Rr, AGT + Mitotracker” value worked out at 0.47. Further, the “amount of protein localized in peroxisomes” value in the assay on CHO cells [2] stood at 84%. For the same molecule, the “Pearson Rr, AGT + PMP70” value in the assay on CHO cells [2] (mean ± S.E.) is recorded as 0.79.
